The target of the assay is actin (rabbit muscle) (rabbit, UniProt P68135 1-377). Kind of assay: FP; actin filaments.

In publication PMC11952830 (2025) one finds Kd data, which are given here for one molecule.

No end group written: not given here. TMR = tetramethylrhodamine

B1: Cdc42EP3 (1-21), TMR labeled at the N-terminus (domain or fragment)
chain: {TMR}-MPAKTPIYLKAANNKKGKKFK
In the case of B1, binding was characterised by a dissociation constant (Kd) of 18.9 µM.
